Experimental data taken from EP2305804B1.
Values joined by “and” are separate entries in the source; they are usually repeats but may differ in a detail not shown here. Identical values can stand only once.

Biological target: Rabbit GH receptor, full length, stably expressed on murine FDC-P1 cells (GH-R4 cell line) (rabbit) (UniProt P19941)
Experiment: cell-based or functional assay

UniProt P19941, sequence (P19941 19-638): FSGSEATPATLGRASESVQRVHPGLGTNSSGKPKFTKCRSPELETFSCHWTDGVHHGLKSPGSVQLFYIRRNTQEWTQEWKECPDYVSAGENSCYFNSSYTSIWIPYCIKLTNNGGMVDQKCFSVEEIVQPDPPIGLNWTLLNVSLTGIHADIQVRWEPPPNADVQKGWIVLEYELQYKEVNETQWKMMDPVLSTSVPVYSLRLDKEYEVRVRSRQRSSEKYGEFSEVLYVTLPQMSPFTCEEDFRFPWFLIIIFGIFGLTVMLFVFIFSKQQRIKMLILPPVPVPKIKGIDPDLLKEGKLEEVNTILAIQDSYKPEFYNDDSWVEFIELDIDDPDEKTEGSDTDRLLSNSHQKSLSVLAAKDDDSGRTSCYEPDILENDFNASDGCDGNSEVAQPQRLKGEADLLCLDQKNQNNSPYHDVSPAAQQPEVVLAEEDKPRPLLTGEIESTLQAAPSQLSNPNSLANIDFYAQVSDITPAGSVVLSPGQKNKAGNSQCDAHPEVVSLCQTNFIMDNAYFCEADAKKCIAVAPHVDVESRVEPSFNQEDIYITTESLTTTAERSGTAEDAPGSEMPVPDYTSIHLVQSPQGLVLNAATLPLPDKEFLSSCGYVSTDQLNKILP

“hGH cysteine mutein T3C, disulfide-linked homodimer (from UniProt P01241 27-217) (ligand)” gave a Mean EC50, MTS cell proliferation assay, GH-R4 cells (T3C dimer) of 1.4 ng/mL.
With “PEG-S144C, monoPEGylated hGH cysteine mutein S144C (5 kDa maleimide-PEG) (from UniProt P01241 27-217) (ligand)” the EC50, individual experiment, MTS cell proliferation assay, GH-R4 cells was 40 ng/mL and 45 ng/mL, the Mean EC50, MTS cell proliferation assay, GH-R4 cells was 43 ng/mL and the Mean EC50 in molar units, MTS cell proliferation assay, GH-R4 cells was 2 nM.
“hGH cysteine mutein S144C (from UniProt P01241 27-217) (ligand)” gave a Mean EC50, MTS cell proliferation assay, GH-R4 cells of 1.6 ng/mL.
With “PEG-T3C, monoPEGylated hGH cysteine mutein T3C (5 kDa maleimide-PEG) (from UniProt P01241 27-217) (ligand)” the Mean EC50, MTS cell proliferation assay, GH-R4 cells was 1.6 ng/mL and the Mean EC50 in molar units, MTS cell proliferation assay, GH-R4 cells was 0.07 nM.
“Wild-type recombinant human growth hormone (rhGH), secreted to the E. coli periplasm with the stII signal sequence (from UniProt P01241 27-217) (ligand)” was tested, and the EC50, individual experiment, MTS cell proliferation assay, GH-R4 cells was 0.8 ng/mL and 1.1 ng/mL and the Mean EC50, MTS cell proliferation assay, GH-R4 cells was 0.8 ng/mL.
In the case of “hGH cysteine mutein T148C (from UniProt P01241 27-217) (ligand)”, the EC50, individual experiment, MTS cell proliferation assay, GH-R4 cells (T148C-lotA) is reported as 0.4 ng/mL and 0.5 ng/mL, the EC50, individual experiment, MTS cell proliferation assay, GH-R4 cells (T148C-lotB) is reported as 1.5 ng/mL and 1.9 ng/mL and 3.1 ng/mL and the Mean EC50, MTS cell proliferation assay, GH-R4 cells (T148C-lotA) is reported as 0.5 ng/mL. The Mean EC50, MTS cell proliferation assay, GH-R4 cells (T148C-lotB) was 2.5 ng/mL.
